Data as given in patent US20230137032A1 (GlaxoSmithKline, published 2023).
Where a chain is given by its changes, count along the chain named.

B1: CA8 humanised J7M1 (antibody, human IgG1, kappa, V domains shown)
VH: QVQLVQSGAEVKKPGSSVKVSCKASGYTFTNYWMHWVRQAPGQGLEWMGATYRGHSDTYYNQKFKGRVTITADKSTSTAYMELSSLRSEDTAVYYCARGAIYDGYDVLDNWGQGTLVTVSS
VL: DIQMTQSPSSLSASVGDRVTITCSASQDISNYLNWYQQKPGKAPKLLIYYTSNLHSGVPSRFSGSGSGTDYTLTISSLQPEDFATYYCQQYRKLPWTFGQGTKLEIKR
notes: Humanised CA8, heavy chain J7 with light chain M1, human IgG1 kappa; also called CA8 J7M1
B2: S307118G03 humanised H3L1 (antibody, human IgG1, kappa, V domains shown)
VH: QVQLVQSGAEVKKPGSSVKVSCKASGYTFTDYYMKWVRQAPGQGLEWIGEIYPNNGGITYNQKFKGRATLTVDKSTSTAYMELSSLRSEDTAVYYCANGYEFVYWGQGTLVTVSS
VL: B1 VL with D28G, N53S, R92S
notes: Humanised, human IgG1 kappa
B3: CA8 humanised J6M1 (antibody, human IgG1, kappa, V domains shown)
VH: B1 VH with Y27G, T30S
VL: B1 VL
notes: Humanised CA8, heavy chain J6 with light chain M1, human IgG1 kappa; also called CA8 J6M1
B4: CA8 humanised J8M1 (antibody, human IgG1, kappa, V domains shown)
VH: B1 VH with A97T
VL: B1 VL
notes: Humanised CA8, heavy chain J8 with light chain M1, human IgG1 kappa; also called CA8 J8M1
B5: CA8 humanised J5M1 (antibody, human IgG1, kappa, V domains shown)
VH: B1 VH with A24G, K74T, A97T
VL: B1 VL
notes: Humanised CA8, heavy chain J5 with light chain M1, human IgG1 kappa; also called CA8 J5M1
B6: CA8 humanised J6M2 (antibody, human IgG1, kappa, V domains shown)
VH: B1 VH with Y27G, T30S
VL: B1 VL with M4L, K45E, L47V
notes: Humanised CA8, heavy chain J6 with light chain M2, human IgG1 kappa; also called CA8 J6M2
B7: S307118G03 humanised H2L1 (antibody, human IgG1, kappa, V domains shown)
VH: B2 VH with I48M, A68V, L70I, V72A
VL: B1 VL with D28G, N53S, R92S
notes: Humanised, human IgG1 kappa
B8: CA8 humanised J9M1 (antibody, human IgG1, kappa, V domains shown)
VH: B1 VH with A24G, M48I, V68A, I70L, K74T, A97T
VL: B1 VL
notes: Humanised CA8, heavy chain J9 with light chain M1, human IgG1 kappa; also called CA8 J9M1
B9: S307118G03 humanised H4L1 (antibody, human IgG1, kappa, V domains shown)
VH: B2 VH with I48M, A68V, L70I, V72A, N98D
VL: B1 VL with D28G, N53S, R92S
notes: Humanised, human IgG1 kappa
B10: CA8 humanised J8M2 (antibody, human IgG1, kappa, V domains shown)
VH: B1 VH with A97T
VL: B1 VL with M4L, K45E, L47V
notes: Humanised CA8, heavy chain J8 with light chain M2, human IgG1 kappa; also called CA8 J8M2
B11: CA8 humanised J9M0 (antibody, human IgG1, kappa, V domains shown)
VH: B1 VH with A24G, M48I, V68A, I70L, K74T, A97T
VL: B1 VL with Y71F
notes: Humanised CA8, heavy chain J9 with light chain M0, human IgG1 kappa; also called CA8 J9M0
B12: CA8 humanised J8M0 (antibody, human IgG1, kappa, V domains shown)
VH: B1 VH with A97T
VL: B1 VL with Y71F
notes: Humanised CA8, heavy chain J8 with light chain M0, human IgG1 kappa; also called CA8 J8M0
B13: CA8 humanised J5M0 (antibody, human IgG1, kappa, V domains shown)
VH: B1 VH with A24G, K74T, A97T
VL: B1 VL with Y71F
notes: Humanised CA8, heavy chain J5 with light chain M0, human IgG1 kappa; also called CA8 J5M0
B14: S307118G03 H5L0 (antibody, human IgG1, kappa, V domains shown)
VH: B2 VH with V103D
VL: B1 VL with D28G, N53S, Y71F, R92S
notes: Humanised, human IgG1 kappa; also called S307118G03 humanised H5L0
B15: CA8 humanised J9M2 (antibody, human IgG1, kappa, V domains shown)
VH: B1 VH with A24G, M48I, V68A, I70L, K74T, A97T
VL: B1 VL with M4L, K45E, L47V
notes: Humanised CA8, heavy chain J9 with light chain M2, human IgG1 kappa; also called CA8 J9M2
B16: S307118G03 humanised H3L0 (antibody, human IgG1, kappa, V domains shown)
VH: B2 VH
VL: B1 VL with D28G, N53S, Y71F, R92S
notes: Humanised, human IgG1 kappa
B17: CA8 humanised J7M2 (antibody, human IgG1, kappa, V domains shown)
VH: B1 VH
VL: B1 VL with M4L, K45E, L47V
notes: Humanised CA8, heavy chain J7 with light chain M2, human IgG1 kappa; also called CA8 J7M2
B18: CA8 humanised J7M0 (antibody, human IgG1, kappa, V domains shown)
VH: B1 VH
VL: B1 VL with Y71F
notes: Humanised CA8, heavy chain J7 with light chain M0, human IgG1 kappa; also called CA8 J7M0
B19: CA8 humanised J5M2 (antibody, human IgG1, kappa, V domains shown)
VH: B1 VH with A24G, K74T, A97T
VL: B1 VL with M4L, K45E, L47V
notes: Humanised CA8, heavy chain J5 with light chain M2, human IgG1 kappa; also called CA8 J5M2
B20: S307118G03 humanised H2L0 (antibody, human IgG1, kappa, V domains shown)
VH: B2 VH with I48M, A68V, L70I, V72A
VL: B1 VL with D28G, N53S, Y71F, R92S
notes: Humanised, human IgG1 kappa

Assays:
[1] = target: T1, recombinant human BCMA, commercial (US Biological, B0410) (human, UniProt Q02223 5-54, limits assumed); assay: Biacore T100, antibody captured on Protein A, 37C
T1 construct: also called commercial human BCMA; Human commercial BCMA
T1 chain (looked up): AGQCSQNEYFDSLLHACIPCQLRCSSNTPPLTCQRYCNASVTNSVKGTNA

[2] = target: T2, recombinant cyno BCMA, in house material (cyno, UniProt A0A2K5UD97 4-52); assay: Biacore T100, antibody captured on Protein A, 37C
T2 construct: also called Cyno in house BCMA
T2 sequence (A0A2K5UD97 entry or part of it): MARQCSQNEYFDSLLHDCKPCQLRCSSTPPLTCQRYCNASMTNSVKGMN

[3] = target: T3, recombinant human BCMA, in house material (human, UniProt Q02223 4-53, limits assumed); assay: ProteOn SPR run 1, antibody captured on Protein A, 25C
T3 construct: also called Human in house BCMA; In house human BCMA

[4] = target: T2, recombinant cyno BCMA, in house material; assay: as above
[5] = target: T3, recombinant human BCMA, in house …; assay: ProteOn SPR run 2, antibody captured on Protein A, 25C; Run 2 (Table 9)
Protocol: The initial screen of CA8 chimeric and humanised variants was carried out on the ProteOn XPR36 (Biorad). The method was as follows; Protein A was immobilised on a GLC chip (Biorad, Cat No: 176-5011) by primary amine coupling, CA8 variants were then captured on this surface and recombinant human BCMA (in house or commercial US Biological, B0410) materials (run 2 only)) passed over at 256, 64, 16, 4, 1 nM with a 0 nM injection (i.e. buffer alone) used to double reference the binding curves, the buffer used is the HBS-EP buffer. 50 mM NaOH was used to regenerate the capture surface. The data was fitted to the 1:1 model using the analysis software inherent to the ProteOn XPR36. […] Both runs were carried out at 25° C.

[6] = target: T4, human BCMA expressed on cells (human, UniProt Q02223 1-184); assay: FACS on ARH77-hBCMA 10B5 transfectant cells, PE anti-human IgG, MFI
T4 construct: whole, on cells; also called human BCMA HEK293; ARH77-hBCMA 10B5 BCMA expressing transfectant cells
T4 sequence (looked up): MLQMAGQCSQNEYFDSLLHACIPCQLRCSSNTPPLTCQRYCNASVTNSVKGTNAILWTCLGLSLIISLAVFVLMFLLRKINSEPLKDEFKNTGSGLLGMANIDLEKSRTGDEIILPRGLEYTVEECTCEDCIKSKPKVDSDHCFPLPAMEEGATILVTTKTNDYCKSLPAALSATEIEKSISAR
Protocol: Cells were then washed with FACS buffer (PBS+0.5% BSA+0.1% sodium azide) to remove unbound antibody. Cells were incubated with a secondary PE labelled anti-human IgG antibody for 15 minutes at RT and then washed with FACS buffer to remove unbound antibody. Cells were analysed by FACS and mean fluorescence intensity (MFI) values measured to determine binding.

[7] = target: T1, recombinant human BCMA, commercial (US …); assay: ProteOn SPR run 2, antibody captured on Protein A, 25C
[8] = target: T2, recombinant cyno BCMA, in house material; assay: as above
[9] = target: T1, recombinant human BCMA, commercial (US …); assay: Biacore T100, antibody captured on Protein A, 37C, experiment 2
Protocol: (§1) Protein A was immobilised on a CMS chip (GE Healthcare, Cat No: BR-1005-30) by primary amine coupling and this surface was then used to capture the antibody molecules. Recombinant human BCMA (US Biological, B0410) was used as analyte at 256 nM, 64 nM, 16 nM, 4 nM and 1 nM. Regeneration of the capture surface was carried out using 50 mM NaOH. All binding curves were double referenced with a buffer injection (i.e. 0 nM) the data was fitted to the using the 1:1 model inherent to T100 evaluation software. The run was carried out at 25° C. and 37° C. for experiment 1 and only 37° C. for experiment 2 using HBS-EP as the running buffer.

[10] = target: T1, recombinant human BCMA, commercial (US …); assay: Biacore T100, antibody captured on Protein A, 37C, experiment 1
Protocol: as §1

[11] = target: T1, recombinant human BCMA, commercial (US …); assay: Biacore T100, antibody captured on Protein A, 25C, experiment 1
Protocol: as §1

| Binder | Kd [1] | Kd [2] | Kd [3] | also measured |
| --- | --- | --- | --- | --- |
| B1 | 0.056 nM | 1.06 nM | – | – |
| B2 | – | – | 4.86 nM | binding result [4]: no binding |
| B3 | – | – | – | Kd [5]: 0.124 nM; binding result [6]: binds; Kd [7]: 0.063 nM; Kd [8]: 5.3 nM |
| B4 | 0.05 nM | 1.28 nM | – | – |
| B5 | – | – | 0.145 nM | Kd [4]: 0.112 nM |
| B6 | – | – | – | Kd [5]: 0.202 nM; binding result [6]: binds; Kd [7]: 0.071 nM; Kd [8]: 6.86 nM |
| B7 | – | – | 6.37 nM | binding result [4]: no binding |
| B8 | 0.018 nM | 0.442 nM | – | binding result [6]: binds |
| B9 | – | – | – | binding result [3]: no binding (tested: up to 256 nM); binding result [4]: no binding |
| B10 | 0.057 nM | 1.32 nM | – | – |
| B11 | 0.035 nM | 0.46 nM | – | Kd [9]: 0.052 nM; Kd [10]: 0.042 nM; binding result [6]: binds; Kd [11]: 0.021 nM |
| B12 | 0.052 nM | 1.08 nM | – | – |
| B13 | – | – | 0.087 nM | Kd [4]: 0.025 nM |
| B14 | – | – | – | binding result [8]: no binding |
| B15 | – | 0.515 nM | – | – |
| B16 | – | – | 5.31 nM | binding result [4]: no binding |
| B17 | 0.057 nM | 1.29 nM | – | – |
| B18 | 0.064 nM | 1.14 nM | – | – |
| B19 | – | – | 0.12 nM | Kd [4]: 0.109 nM |
| B20 | – | – | 6.36 nM | binding result [4]: no binding |
